*1 amine or outer side, *2 acyl side, *3 side chain or, on linkers, in order; H or OH if unused. Bridges are numbered along the chain shown (N, C = ends). Where no end group is shown, it is not given here. [ ]: non-standard residue; d: D form. PYA = propargyl-acid (alkyne used for click attachment); TATA = O=C(CC[*:1])N1CN(C(=O)CC[*:2])CN(C(=O)CC[*:3])C1; tBuAla = CC(C)(C)C[C@H](N)C(=O)O; Nle = CCCC[C@H](N)C(=O)O
B1: BCY9931 (peptide)
peptide: ACIEEGQYCFADPYXCX
modifications: N-terminal acetyl; Nle (norleucine) at position 12 of the core; C-terminal Dap(Lys(PYA)) amide (CONH2); the three Cys (Ci, Cii, Ciii) cyclised on the TATA scaffold; joined through PYA to spacer SA (n = 23) on central hinge moiety A; Alexa Fluor 488 conjugated to one of the four peptides (formula (I))
notes: also called fluorescent CD137 multimer; fluorescent tetramer
B2: BCY7340 (peptide)
peptide: CIEEGQYCFADPYMCAX
modifications: N-terminal acetyl; C-terminal Pra (propargylglycine) amide (CONH2); the three Cys cyclised on the TATA scaffold; joined through Pra to spacer SA (n = 23) on central hinge moiety C; fluorescein on the hinge without spacer (formula (II))
notes: also called fluorescent CD137 multimer; fluorescent CD137 dimer
B3: BCY15416 (peptide)
peptide: Ac-C[tBuAla]PE[dK](PYA)PYCFADPY[Nle]CA
modifications: linker 1-8-15 via TATA; also: dimer: joined through PYA directly to central hinge moiety D, Alexa Fluor 488 on the hinge without spacer (formula (II))
notes: also called fluorescently labelled CD137 dimer; CD137 dimer

What was measured:
human CD137 [1] = molecular target: T1, human CD137 (human, UniProt Q07011 24-255); assay: flow cytometry, direct binding to activated human CD8+/CD137+ T cells
T1 construct: whole, on cells; Endogenous receptor on CD3-stimulated human PBMCs or purified CD8+ T cells; also called CD137 receptor; 4-1BB
T1 sequence (Q07011 24-255): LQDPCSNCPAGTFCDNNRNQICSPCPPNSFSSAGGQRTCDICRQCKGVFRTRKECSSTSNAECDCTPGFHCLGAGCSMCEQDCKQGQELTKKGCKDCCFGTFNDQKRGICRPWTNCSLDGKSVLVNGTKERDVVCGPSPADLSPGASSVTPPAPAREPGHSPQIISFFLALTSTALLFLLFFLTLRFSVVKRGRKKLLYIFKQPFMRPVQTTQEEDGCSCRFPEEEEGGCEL

human CD137 [2] = molecular target: T1, human CD137; assay: flow cytometry on CD3-stimulated human PBMCs, apparent affinity (kd,app), CD8+ CD137+ population, donor 217071
Method: (§1) Plates were then incubated for 1 hour at 37° C., 5% CO₂. Post-incubation, plate was centrifuged at 500 rpm for 5 minutes and supernatant discarded. Samples were then washed once in 200 μL of 1× phosphate buffer saline (PBS; Gibco™ 10-010-023) at 500 rpm for 5 minutes. Cells were resuspended in 200 μL of PBS and transferred to a 96-well V-bottom polypropylene plate (Greiner Bio-One 651201). Samples were then centrifuged at 500 rpm for 5 minutes and supernatant was discarded.
(§2) Preparation of samples for flow cytometry: Zombie Violet™ Fixable Viability Dye (BioLegend® 423113) was prepared as a 1:1000 dilution in PBS and 100 μL of viability dye was added to each well and incubated in the dark at 4° C. for 30 minutes. Subsequently, wells were washed with 100 μL of PBS for 5 minutes at 500 rpm and supernatant was discarded. […] Cells resuspended in 200 μL of stain buffer were kept at 4° C. and in the dark until read by BD FACSCelesta™ flow cytometer and FCS files were analyzed in FlowJo™.
(§3) Cells were gated on lymphocytes→singlets→live→CD4+ or CD8+→CD137+/− and the geometric mean of Alexa Fluor® 488 (conjugated to BCY15416) was calculated from the CD137+ and CD137− populations shown below. […] Calculated binding affinity (kd,app) for each donor appear in Table 5. […]

human CD137 [3] = molecular target: T1, human CD137; assay: flow cytometry on CD3-stimulated human PBMCs, apparent affinity (kd,app), CD4+ CD137+ population, donor 214047
Method: as §1, §2, §3

human CD137 [4] = molecular target: T1, human CD137; assay: flow cytometry on CD3-stimulated human PBMCs, apparent affinity (kd,app), CD4+ CD137+ population, donor 217071
Method: as §1, §2, §3

human CD137 [5] = molecular target: T1, human CD137; assay: flow cytometry on CD3-stimulated human PBMCs, apparent affinity (kd,app), CD8+ CD137+ population, donor 214047
Method: as §1, §2, §3

human CD137 [6] = molecular target: T1, human CD137; assay: flow cytometry on CD3-stimulated human PBMCs, apparent affinity (kd,app), CD4+ CD137+ population, donor 214026
Method: as §1, §2, §3

human CD137 [7] = molecular target: T1, human CD137; assay: flow cytometry on CD3-stimulated human PBMCs, apparent affinity (kd,app), CD8+ CD137+ population, donor 214026
Method: as §1, §2, §3

Row | Binder | binding result (human CD137 [1]) | Kd (human CD137 [2]) [nM] | Kd (human CD137 [3]) [nM] | Kd (human CD137 [4]) [nM] | Kd (human CD137 [5]) [nM] | Kd (human CD137 [6]) [nM] | Kd (human CD137 [7]) [nM]
1 | B1 | binds | – | – | – | – | – | –
2 | B2 | binds | – | – | – | – | – | –
3 | B3 | – | 0.13 | 0.144 | 0.13 | 0.118 | 0.875 | 0.114

Reference: patent publication US20220275053A1, “MODIFIED […] PEPTIDE LIGANDS” (BicycleTx Limited, priority 2019, published 2022)
